We go through two molecules from article PMC3852774.

Series [1] has as its target Tth Man5 β-mannosidase from Thermotoga thermarum DSM 5069 (Thermotoga thermarum DSM 5069). The series can be described thus: SEC; Superdex 200 10/30 GL column on an AKTA FPLC system; MW from the calibration curve of the gel filtration column. In general terms: SEC sorts molecules by how far they enter the pores of the column.
Substrate in the series “purified protein”: O=[N+]([O-])c1ccc(O[C@@H]2O[C@H](CO)[C@@H](O)[C@H](O)[C@@H]2O)cc1
In words: purified protein. As to conditions: 50 mM imidazole-potassium buffer pH 5.5, 85°C, error given as ±0.5.

The term stoichiometry N denotes the number of molecules, sites or subunits per partner or assembly. “Tth Man5 β-mannosidase from Thermotoga thermarum DSM 5069 (enzyme)” gave a stoichiometry N in series [1] of 7.

B1: Tth Man5 β-mannosidase (Pseudothermotoga thermarum DSM 5069) (protein)
chain: MDFLLGINYWSRSGAMYMWEDEYFNEEVIENEIIEMKNLGMNICRSFLFLPTFFPKPNKISEKHVERYLKFLNLCEEHGLKTLLTFIVGHMSGENFDPPFRNQRDLYMDEFMLQQQCFFVKSIVEKVRSSPAVYGYILSNEMPLYGGTGEPEKVLNWVKKLVEVIKSVDPTRPVGTGDGCWNVFGGENGFNLREISKIVDYLGPHVYLSETDEYRHSMIPEFVIRYLSQYDLPILYEEFGASSAQALDENIALYYREVLINCLINGAIGALGWCLNDFNYPNMKPYLHHPFELKFGIFKVDGARKPAAEEIVKFKNFVDSLENIQYPNAEACILVPSYYNKQYPFSFDDPKETFKHLLQATVLCAKAGFVVDLVEEENYKRWKSYKLIILPSERKYLATTWENLHKYVQAGGNLYISYYWGKYDFHQGIWSQNLESLIGCKLNLRYGLTSSLPSKVKLEYGGLTWKLNVEKCNEWEKSYAPIVSILETAESIELGQSDLQLVKNKVGSGKVFFINFPLEHILSVNEKINLSDLSHLIYRCIAKQASLNLCYCDNQRVRVRKIKSGRKTLYLIQNIAWDKEQVQTIFDNSSTYHVQIELDPKEYKLLNF
Usually Km stands for the substrate concentration at which the rate is half of its maximum. As usually defined, the Vmax is the rate approached at saturating substrate. The term kcat denotes the number of substrate molecules converted per active site and unit of time at saturation. A word on the kcat/Km: it is the second-order rate constant that governs catalysis at low substrate concentration. On to B1, for which, in the series “purified protein”, the Km came to 4.36 ± 0.05 mM, the maximum rate (Vmax) was determined as 227 µmol/min/mg, the kcat was found to be 1920 s⁻¹ and the catalytic efficiency (kcat/Km) stood at 441000 M⁻¹ s⁻¹.
